B1: Tomato ASR1 (Abscisic, Stress, Ripening protein 1), untagged recombinant protein (natural protein, UniProt Q08655 1-115, looked up)
chain: MEEEKHHHHHLFHHKDKAEEGPVDYEKEIKHHKHLEQIGKLGTVAAGAYALHEKHEAKKDPEHAHKHKIEEEIAAAAAVGAGGFAFHEHHEKKDAKKEEKKKLRGDTTISSKLLF
notes: ASR1 of tomato; 'peaks corresponding to the expected full-length protein were pooled'; 12.7 kDa by SLS; The cloning of ASR1 alone is not described; also called untagged ASR1; ASR1 recombinant protein
B2: FITC-oligoC (dsDNA)
DNA 1: TATTGGGCTTGG
DNA 2: CCAAGCCCAATA
B3: FITC-oligoS (dsDNA)
DNA 1: AGTTCTGGTTGG
DNA 2: CCAACCAGAACT

Tests used:
[1] = molecular target: the molecule itself; assay: SDS-PAGE; purified ASR1 at high protein concentrations on SDS-PAGE
[2] = molecular target: T1, ASR1 (Abscisic, Stress, Ripening 1) (Solanum lycopersicum (tomato), UniProt Q08655 1-115); assay: fluorescence anisotropy; 100 uM ZnCl2; Buffer H: 100 mM NaCl, 20 mM HEPES pH 7.4, with 100 uM ZnCl2; 250 nM FITC-dsDNA; anisotropy temperature not stated (CD at 25 C); conditions: protein: recombinant; tags: untagged in the main text (original His6 removed); label: 5' FITC on one strand; blunt
T1 sequence: B1 chain

Binder | binding result [1] | Kd [2]
B1 | binds | –
B2 | – | 216 ± 10 nM
B3 | – | 1080 ± 46 nM
